Laboratory results: the supplement of paper PMC12042874
± gives the uncertainty stated by the source.

Experiment: amyloid nucleation score (Sup35N fusion, yeast selection) (log enrichment); library NNK3; higher = more nucleation; inactive = no reads after selection
Method in brief: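 The nucleation score equals the log enrichment of output over input reads from DiMSum, centred on the mode score of non-aggregating sequences. It was computed only for sequences with 100 or more input reads. The reads came from Illumina sequencing of plasmid inserts from psi-negative yeast expressing Sup35N fused to peptides of 20 random codons, induced with 100 μM copper sulfate for 24 hours and grown 7 days at 30°C without adenine and uracil.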

Substance | amyloid nucleation score
FQSDRVCFIGGWTSNRVGWM | 0.699 ± 0.28
DKIGDFNLYWHVKALLAYFY | inactive
LFVIYISDIAPTGYQVQNDI | inactive
REDILLRSSFSDSHVGRLKT | inactive
LSTQNRISASREMMDTDILG | 0.8 ± 0.13
TKDRFFLKHTGRIMLGLRR | inactive
TDYQNWFNVEINKF | 1.48 ± 0.14
GMRSLDMRWAGVMYVHRRRL | inactive
PRSMNLHLTSSVTSCLKSVW | -0.707 ± 0.9
CSPVTCEISDWIV | inactive
NLLDYTVIVNSLSFVDSKSS | inactive
FTCDTMKYSSRYSLFYVRVS | 0.205 ± 0.77
LTEMVLPLVHHLKTWSFVQE | inactive
DGNLPPNWLKGACTFRWTFI | inactive
CYVDVI | inactive
HIMSEGHSLAMGCTCSNNYP | inactive
LNTYQHFCIFMLSYALLSGH | -1.49 ± 2.5
SGSAELARLHYRMELKAPYL | inactive
MALSRILTALVVLLLTVVVC | inactive
YKYVFHPIFFDQGT | inactive
MWVGKHDVYTRDFM | inactive
IFCAKSIIGIPGTDPRCRPD | 1.5 ± 0.13

Substance | amyloid nucleation score
SNANKCGRMFEMKYRHNLCL | inactive
GFAYESQAA | inactive
VFTDLCTYKTCTYVIPCTAE | inactive
ACIFNLGGVHRCICCVLFNI | inactive
RWSILDGHHNVVLSVPSKS | inactive
NCYDSW | inactive
FFFTATLNQLSYTYIFSKLA | inactive
NCLRLYQGSGKMFIIV | inactive
VTFMIDFRASWALFHDRWWC | inactive
WRVAYET | inactive
SSRVVAWLSFNGSIICLFTF | inactive
ANPGG | -1.05 ± 2.5
WDFDVSVIGLMYKFRSVELG | inactive
SMYIIMVCSSVSCWYFNRGH | 0.94 ± 0.18
GYLYDFLPCP | -0.497 ± 0.7
WNLYRFLNW | inactive
MCILQGLFDVNSLTGLWVAS | inactive
KVILPWKLWADGWRDY | inactive
CIWLTVIFSWRYEVG | inactive
GFSYVVNYVFFTDVKNTAAL | 2.17 ± 0.076
LYGGLEHESIMFIRCSGWIC | inactive
RSYLHCSTK | inactive

Substance | amyloid nucleation score
GQPTICKDGYSMLLNEFSRS | inactive
LIYANEYA | inactive
NMLVCITSDGLYFYCCGANS | 1.5 ± 0.11
VRSTFNCITLRTLAIRSFYH | inactive
TTSCEVAWFEICLSSLNFTM | inactive
EMDTCIQWLSRVLSGPDSFF | -0.72 ± 0.8
FDMFVLGMGCGILQYLICFK | inactive
LVADSDRMNVTLRFTVSYCS | inactive
GRSSMFRINNQMLCWVSIPC | inactive
NWDTNFVYSIGIDIY | inactive
PDWVVPDGGIVTGIVGWCSG | inactive
NLLNSFIFSRLRRVEGGMFG | inactive
DVTYECGRS | inactive
FLFILPDNGPRWCSYTVGNV | inactive
FNCSARNYGTRFFCLMRAGV | -0.654 ± 1.4
NYFQFLKENFVARNKESRRG | inactive
GNTFLWCGRVDSYSTHSYLC | inactive
SGLDFAYLDECSREGSVYAG | inactive
RLNWGFTLA | inactive
LSNLRGYNH | inactive
